For 14 molecules, Kd results are on record in paper PMC12001967, “Different RNA recognition by ProQ and FinO depends on the sequence surrounding intrinsic terminator hairpins”.

Data set [1] deals with T1, FinO (F-like plasmid (Escherichia coli), UniProt P29367 1-186).
T1 sequence: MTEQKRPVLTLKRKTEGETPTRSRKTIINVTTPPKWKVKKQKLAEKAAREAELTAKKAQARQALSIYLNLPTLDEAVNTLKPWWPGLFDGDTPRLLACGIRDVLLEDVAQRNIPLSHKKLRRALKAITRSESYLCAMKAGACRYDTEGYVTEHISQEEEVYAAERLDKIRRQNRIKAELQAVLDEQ
Briefly: EMSA; max bound 57%; 150 mM NaCl, 25 mM Tris-HCl pH 7.5, 5% glycerol, 1 mM MgCl2, 1 nM 32P-RNA, 30 min at room temperature; native 6% PAGE in 0.5x TBE at 4 C. The note with it: protein: recombinant; tags: His6-TEV site (ENLYFQ/S) N-terminal in the expression construct; label: 32P; terminator hairpin. In general terms: Mobility shift assays separate free from complexed probe on a gel.

For data set [2], the target named is T2, ProQ (Escherichia coli, UniProt P45577 1-232).
T2 sequence: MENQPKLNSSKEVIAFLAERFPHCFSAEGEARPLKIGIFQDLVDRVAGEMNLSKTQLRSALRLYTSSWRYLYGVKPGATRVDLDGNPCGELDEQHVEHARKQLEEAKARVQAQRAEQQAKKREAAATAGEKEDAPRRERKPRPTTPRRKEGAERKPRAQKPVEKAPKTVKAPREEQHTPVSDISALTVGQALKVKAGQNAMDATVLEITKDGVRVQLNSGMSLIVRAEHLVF
Briefly: EMSA; 25 mM Tris-HCl pH 7.5, 150 mM NaCl, 5% glycerol, 1 mM MgCl2, 1 nM 32P-RNA, 30 min at room temperature; native 6% PAGE in 0.5x TBE at 4 C. The settings on record: protein: recombinant, tags: pET-15b construct, label: 32P.

The target in data set [3] is T3, ProQNTD (FinO domain of ProQ) (Escherichia coli, UniProt P45577 1-130).
T3 sequence: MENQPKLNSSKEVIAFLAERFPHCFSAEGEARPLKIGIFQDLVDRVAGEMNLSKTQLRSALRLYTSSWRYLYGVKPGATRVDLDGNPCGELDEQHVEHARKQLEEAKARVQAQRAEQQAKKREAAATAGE
The data set is described as above. The note with it: protein: recombinant, tags: pET-15b construct, label: 32P.

Data set [4] addresses T2, ProQ. Nature of the data set: EMSA; max bound 85%; 150 mM NaCl, 25 mM Tris-HCl pH 7.5, 5% glycerol, 1 mM MgCl2, 1 nM 32P-RNA, 30 min at room temperature; native 6% PAGE in 0.5x TBE at 4 C. The note with it: protein: recombinant; tags: pET-15b construct; label: 32P; terminator hairpin.
Data set [5] concerns the target T1, FinO. Nature of the data set: EMSA; 25 mM Tris-HCl pH 7.5, 150 mM NaCl, 5% glycerol, 1 mM MgCl2, 1 nM 32P-RNA, 30 min at room temperature; native 6% PAGE in 0.5x TBE at 4 C. The note with it: protein: recombinant, tags: His6-TEV site (ENLYFQ/S) N-terminal in the expression construct, label: 32P.
Data set [6] addresses T1, FinO. Nature of the data set: EMSA; max bound 55%; 150 mM NaCl, 25 mM Tris-HCl pH 7.5, 5% glycerol, 1 mM MgCl2, 1 nM 32P-RNA, 30 min at room temperature; native 6% PAGE in 0.5x TBE at 4 C. The note with it: protein: recombinant; tags: His6-TEV site (ENLYFQ/S) N-terminal in the expression construct; label: 32P; terminator hairpin.
The target of data set [7] is T2, ProQ. Briefly: EMSA; max bound 67%; 150 mM NaCl, 25 mM Tris-HCl pH 7.5, 5% glycerol, 1 mM MgCl2, 1 nM 32P-RNA, 30 min at room temperature; native 6% PAGE in 0.5x TBE at 4 C. The settings on record: protein: recombinant; tags: pET-15b construct; label: 32P; terminator hairpin.
[8] abbreviates: terminator hairpin, A-G then C-A mismatch below, GAU4 tail.
Where [9] appears, read: terminator hairpin, 5' A4 paired with first four U of U8 tail.

Where a chain is given by its changes, count along the chain named. Names may count otherwise.

B1: FinP-malM (structured_RNA)
RNA: GGAUACAUAGGAACCUCCUCACAAAGGAUUCUAUGGACUGUCGAUGCAGGGAGUUCACGUCUCCCUGCAUCGGCUUUUUUU
The term Kd denotes the concentration at which binding is half-saturated. Take B1: the Kd with FinO [1] worked out at 280 ± 110 nM; with ProQ [2] (terminator hairpin), 25 ± 6.7 nM; in data set [3] (terminator hairpin), 5.3 ± 1.5 nM.

B2: cspE81-FinP-stem (structured_RNA)
RNA: GGCCCUUCUGCUGCAAACGUAAUCGCUCUGUAAGAUACGUCAGCAAGAAUUCAACAGUCGCUUAAUCAGCGGCGAUUUU
Turning to B2, the results for the Kd in the data set with ProQ [4], with ProQ [2] (terminator hairpin) and with FinO [5] (terminator hairpin) were 130 ± 34 nM, 130 ± 34 nM and 56 ± 16 nM, respectively.

B3: cspE81-FinP (structured_RNA)
RNA: B2 RNA with G57C, U58C, C73G
Consider B3, for which the figures for the Kd (in data set [3] (terminator hairpin); with FinO [5] (terminator hairpin)) were 4.9 ± 0.32 nM and 88 ± 39 nM, respectively.

B4: malM-3' (structured_RNA)
RNA: GCUUUAUCAGCAGUGUAAAAGGCAAGGGGUAAUUACGCCCCACAGUGCUGAUUUUGCAACAACUGGUGCGUCUCCUGGCGCACCUUUUUUU
For the molecule B4, the Kd turned out to be 27 ± 12 nM in the data set with ProQ [2] (terminator hairpin, U7 tail) and 5.8 ± 0.7 nM in data set [3] (terminator hairpin, U7 tail).

B5: malM-3' U64A;U85G;U86A (structured_RNA)
RNA: B4 RNA with U64A, U85G, U86A
Take B5: the Kd with ProQ [2] amounted to 160 ± 30 nM; with FinO [5] it was 130 ± 18 nM.

B6: malM-3' U64A;U85G (structured_RNA)
RNA: B4 RNA with U64A, U85G
With B6, the Kd was found to be 1.9 ± 0.59 nM in data set [3] and 150 ± 40 nM with FinO [5].

B7: RepX (structured_RNA)
RNA: GCAUUGAUUGCCUCCUUUGCAGGCAGUUGGUGGUUAGGCGCUGGCGGGGUCACUACCCCCGCCCUGCGCCGCUCU
For B7, in the data set with FinO [5] (terminator hairpin, A-G mismatch below), the dissociation constant (Kd) is 61 ± 23 nM.

B8: RepX-malM (structured_RNA)
RNA: GCAUUGAUUGCCUCCUUUGCAGGCAGUUGGUGGACUGGCGCUGGCGGGGUCACUACCCCCGCCCUGCGCCUUUUUUU
Take B8: the equilibrium dissociation constant (Kd) in data set [3] (terminator hairpin) is 3.2 ± 1.6 nM; with FinO [5] (terminator hairpin), 150 ± 67 nM.

B9: FinP (structured_RNA)
RNA: GGAUACAUAGGAACCUCCUCACAAAGGAUUCUAUGGACAGUCGAUGCAGGGAGUUCACGUCUCCCUGCAUCGGCGAUUUU
Take B9: the Kd with ProQ [2] (setting [8]) amounted to 79 ± 18 nM; in data set [3] (setting [8]) it was 19 ± 6 nM; with FinO [5] (setting [8]) it was 110 ± 16 nM.

B10: FinP A39U;G75U;A76U (structured_RNA)
RNA: B9 RNA with A39U, G75U, A76U
For the molecule B10, the equilibrium dissociation constant (Kd) stood at 37 ± 5.4 nM with ProQ [2], 9.4 ± 4.5 nM in data set [3] and 170 ± 45 nM in the data set with FinO [5].

B11: FinP A39U;G75U (structured_RNA)
RNA: B9 RNA with A39U, G75U
For the molecule B11, the Kd is 6.2 ± 3.1 nM in data set [3] and 200 ± 73 nM in the data set with FinO [5].

B12: malM-RepX (structured_RNA)
RNA: GCUUUAUCAGCAGUGUAAAAGGCAAGGGGUAAUUACGCCCCACAGUGCUGAUUUUGCAACAUUAGGUGCGUCUCCUGGCGCACCGCUCU
Turning to B12, the Kd is 180 ± 93 nM with FinO [6], 61 ± 29 nM with ProQ [7], 61 ± 29 nM with ProQ [2] (terminator hairpin) and 180 ± 93 nM in the data set with FinO [5] (terminator hairpin).

B13: malM-FinP (structured_RNA)
RNA: GCUUUAUCAGCAGUGUAAAAGGCAAGGGGUAAUUACGCCCCACAGUGCUGAUUUUGCAACAACAGGUGCGUCUCCUGGCGCACCGAUUUU
On to B13, for which the values for the Kd with ProQ [2] (terminator hairpin) and with FinO [5] (terminator hairpin) were 78 ± 22 nM and 86 ± 17 nM, respectively.

B14: cspE81-3' (structured_RNA)
RNA: GGCCCUUCUGCUGCAAACGUAAUCGCUCUGUAAGAUACGUCAGCAAGAAUUCAAAACCCGCUUAAUCAGCGGGUUUUUUUU
B14: the dissociation constant (Kd) stood at 37 ± 7.1 nM in the data set with ProQ [2] (setting [9]) and 2.4 ± 0.27 nM in data set [3] (setting [9]).
